According to the supplement of paper PMC7125110:
± gives the standard error. This sample holds only a part of the variants without activity.

B1: glmS ribozyme (parent)
chain: AUAAAAGCGCCAGAACUACAGAAAUGUAGUUGACGAGGAGGAGGUUUAUCGAAUUUUCGGCGGAUGCCUCCAAA

How the values were obtained:
Conditions in all cases: with glucosamine-6-phosphate
glucosamine-6-phosphate [1] = variants of: B1; assay: self-cleavage kobs at 40 uM GlcN6P; higher = faster cleavage; RNA array
Method in brief: (§1)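 E. coli RNA polymerase transcribed barcoded ribozyme variants in situ on sequenced MiSeq chips, which were tracked via a hybridised Cy3 probe at 37 °C. Tiles were imaged over ~14 h after glucosamine-6-phosphate (40 μM to 10 mM) in HEPES/KCl/Mg(OAc)2 buffer was flowed in. Normalised per-tile medians were fit to one- or two-exponential decays for kobs, and kcat and KM came from weighted Michaelis–Menten fits.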

glucosamine-6-phosphate [2] = variants of: B1; assay: self-cleavage kobs at 640 uM GlcN6P; higher = faster cleavage; RNA array
Method in brief: as §1

glucosamine-6-phosphate [3] = variants of: B1; assay: self-cleavage kobs at 2500 uM GlcN6P; higher = faster cleavage; RNA array
Method in brief: as §1

glucosamine-6-phosphate [4] = variants of: B1; assay: self-cleavage kobs at 10000 uM GlcN6P; higher = faster cleavage; RNA array
Method in brief: as §1

glucosamine-6-phosphate [5] = variants of: B1; assay: self-cleavage kobs at 160 uM GlcN6P; higher = faster cleavage; RNA array
Method in brief: as §1

Variant | self-cleavage kobs at 40 uM GlcN6P (glucosamine-6-phosphate [1]) | self-cleavage kobs at 640 uM GlcN6P (glucosamine-6-phosphate [2]) | self-cleavage kobs at 2500 uM GlcN6P (glucosamine-6-phosphate [3]) | self-cleavage kobs at 10000 uM GlcN6P (glucosamine-6-phosphate [4]) | self-cleavage kobs at 160 uM GlcN6P (glucosamine-6-phosphate [5])
G38U U45G | < 1e-05 s⁻¹ | < 1e-05 s⁻¹ |  |  | 
A6U A15U A36G A52C | < 1e-05 s⁻¹ |  | < 1e-05 s⁻¹ |  | 
U31G U54G C67G C68A C70G | 4.46e-05 ± 2.2e-05 s⁻¹ |  | 0.000243 ± 6.9e-05 s⁻¹ |  | 
G51A U65A | < 1e-05 s⁻¹ |  | < 1e-05 s⁻¹ | < 1e-05 s⁻¹ | 
U31A A64C | < 1e-05 s⁻¹ |  |  | 4.57e-05 ± 1e-05 s⁻¹ | 
A48U G63U | < 1e-05 s⁻¹ | < 1e-05 s⁻¹ | < 1e-05 s⁻¹ | < 1e-05 s⁻¹ | < 1e-05 s⁻¹
C10U C34A C50G U65A | 8.28e-05 ± 3e-05 s⁻¹ |  | 6.81e-05 ± 2.9e-05 s⁻¹ | 0.000129 ± 2.8e-05 s⁻¹ | 
C8G C61U G66A C70U | < 1e-05 s⁻¹ |  |  |  | 
U45C U55C | 5.77e-05 ± 1.3e-05 s⁻¹ |  | 0.00199 ± 0.00054 s⁻¹ | 0.00272 ± 0.00037 s⁻¹ | 
G37A U56A | 1.92e-05 ± 6.8e-06 s⁻¹ |  |  | 0.000962 ± 0.00011 s⁻¹ | 4.84e-05 ± 1.8e-05 s⁻¹
C11U A33U C61G | < 1e-05 s⁻¹ |  |  |  | 
U30G A36G U54G | < 1e-05 s⁻¹ |  |  | < 1e-05 s⁻¹ | 
A14G A15U G29A | 3.49e-05 ± 1.3e-05 s⁻¹ |  |  | 0.00133 ± 0.00028 s⁻¹ | 
G32U A36C C68A | < 1e-05 s⁻¹ |  |  | < 1e-05 s⁻¹ | 
C34A G44A | < 1e-05 s⁻¹ | < 1e-05 s⁻¹ | < 1e-05 s⁻¹ | < 1e-05 s⁻¹ | < 1e-05 s⁻¹
A36U U49G U65A | < 1e-05 s⁻¹ |  |  |  | 
G7U U31A | < 1e-05 s⁻¹ | < 1e-05 s⁻¹ | < 1e-05 s⁻¹ | < 1e-05 s⁻¹ | < 1e-05 s⁻¹
G9C U65A | < 1e-05 s⁻¹ |  | < 1e-05 s⁻¹ |  | 
G41U G60U | < 1e-05 s⁻¹ | < 1e-05 s⁻¹ |  | < 1e-05 s⁻¹ | < 1e-05 s⁻¹
C8U G29C C50A | < 1e-05 s⁻¹ | < 1e-05 s⁻¹ |  |  | 
U30C A48U | < 1e-05 s⁻¹ | < 1e-05 s⁻¹ |  | < 1e-05 s⁻¹ | < 1e-05 s⁻¹
G29U A42C C58A C67G | < 1e-05 s⁻¹ | < 1e-05 s⁻¹ | < 1e-05 s⁻¹ |  | 
G38C U65G | < 1e-05 s⁻¹ | < 1e-05 s⁻¹ |  |  | < 1e-05 s⁻¹
G7U U49A | < 1e-05 s⁻¹ | < 1e-05 s⁻¹ | < 1e-05 s⁻¹ | < 1e-05 s⁻¹ | < 1e-05 s⁻¹

Variant | self-cleavage kobs at 40 uM GlcN6P (glucosamine-6-phosphate [1]) | self-cleavage kobs at 640 uM GlcN6P (glucosamine-6-phosphate [2]) | self-cleavage kobs at 2500 uM GlcN6P (glucosamine-6-phosphate [3]) | self-cleavage kobs at 10000 uM GlcN6P (glucosamine-6-phosphate [4]) | self-cleavage kobs at 160 uM GlcN6P (glucosamine-6-phosphate [5])
G9U G41A | < 1e-05 s⁻¹ | < 1e-05 s⁻¹ | < 1e-05 s⁻¹ | < 1e-05 s⁻¹ | < 1e-05 s⁻¹
G13U G35U G63C A64U | < 1e-05 s⁻¹ |  |  |  | 
U30C G43A U46A | < 1e-05 s⁻¹ |  |  |  | 
A42G C67G | 0.000618 ± 0.00013 s⁻¹ | 0.00232 ± 0.00045 s⁻¹ | 0.00814 ± 0.0014 s⁻¹ | 0.0123 ± 0.0031 s⁻¹ | 0.00112 ± 0.00024 s⁻¹
A48U G62U C68G | < 1e-05 s⁻¹ |  |  |  | 
U57A G63U C70G | < 1e-05 s⁻¹ |  |  |  | 
U56A U65G | 3.75e-05 ± 1.4e-05 s⁻¹ | 0.000348 ± 0.00011 s⁻¹ |  | 0.00196 ± 0.00027 s⁻¹ | 
U49C G66A | < 1e-05 s⁻¹ |  |  | < 1e-05 s⁻¹ | 
G43C G59C | < 1e-05 s⁻¹ | < 1e-05 s⁻¹ | < 1e-05 s⁻¹ | < 1e-05 s⁻¹ | < 1e-05 s⁻¹
G7A A48C | < 1e-05 s⁻¹ | < 1e-05 s⁻¹ |  | < 1e-05 s⁻¹ | < 1e-05 s⁻¹
A15G C67U | 0.000329 ± 5.2e-05 s⁻¹ | 0.00169 ± 0.00028 s⁻¹ | 0.00538 ± 0.0014 s⁻¹ | 0.00828 ± 0.0017 s⁻¹ | 0.000674 ± 0.00013 s⁻¹
G13U A36G G62U G66U C70A | < 1e-05 s⁻¹ |  |  |  | 
C11G G41C | < 1e-05 s⁻¹ | < 1e-05 s⁻¹ | < 1e-05 s⁻¹ |  | < 1e-05 s⁻¹
U54G U65G C67G | 3.01e-05 ± 1.5e-05 s⁻¹ |  |  | 0.00213 ± 0.00029 s⁻¹ | 
A12U A14G C68U | 0.000526 ± 0.0001 s⁻¹ |  |  |  | 
G37C U45G | < 1e-05 s⁻¹ | < 1e-05 s⁻¹ |  |  | < 1e-05 s⁻¹
C10A A36G G40C U47G | < 1e-05 s⁻¹ |  |  |  | 
G37U G60C | < 1e-05 s⁻¹ | < 1e-05 s⁻¹ |  |  | < 1e-05 s⁻¹
C34A G43C | < 1e-05 s⁻¹ | < 1e-05 s⁻¹ |  | < 1e-05 s⁻¹ | < 1e-05 s⁻¹
C8A U47G | < 1e-05 s⁻¹ |  |  |  | 
A6G G51U U57C | < 1e-05 s⁻¹ |  |  | < 1e-05 s⁻¹ | 
A6U C58U | < 1e-05 s⁻¹ | < 1e-05 s⁻¹ | < 1e-05 s⁻¹ | < 1e-05 s⁻¹ | < 1e-05 s⁻¹
U45G C50U A53U | < 1e-05 s⁻¹ |  |  |  | 
G51U A53C C67G | < 1e-05 s⁻¹ |  |  |  | 
